Assay results reported in patent publication US20250043003A1 (ONCOC4, published 2025).
Positions count from the first letter of the chain named.

T1: CTLA-4 (antigen of the affinity measurement of Table 1) (UniProt P16410 36-161, limits assumed)
T1 construct: Antigen form and method of the KD measurement are not described
T1 sequence (looked up): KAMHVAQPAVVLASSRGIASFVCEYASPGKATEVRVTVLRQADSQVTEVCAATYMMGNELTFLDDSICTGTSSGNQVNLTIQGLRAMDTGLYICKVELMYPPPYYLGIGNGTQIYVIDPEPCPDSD

T2: His-hCTLA-4 (polyhistidine-tagged CTLA-4) (human, UniProt P16410 36-161)
T2 construct: Coated on ELISA plates at 0.5 ug/ml; not shown: polyhistidine tag
T2 sequence (looked up): T1 sequence (looked up)

B1: AB139 (TremeIgG1) (antibody, V domains shown)
VH: QVQLVESGGGVVQPGRSLRLSCAASGFTFSSYGMHWVRQAPGKGLEWVAVIWYDGSNKYYADSVKGRFTISRDNSKNTLYLQMNSLRAEDTAVYYCARDPRGATLYYYYYGMDVWGQGTTVTVSS
VL: DIQMTQSPSSLSASVGDRVTITCRASQSINSYLDWYQQKPGKAPKLLIYAASSLQSGVPSRFSGSGSGTDFTLTISSLQPEDFATYYCQQYYSTPFTFGPGTKVEIKR
notes: Tremelimumab variable regions; also called mAb139; WT TremeIgG1
B2: AB156 (antibody, IgG1, V domains shown)
VH: B1 VH with Y106H, Y107H, Y108H
VL: B1 VL
notes: TremeIgG1 mutant, IgG1; also called Mab156; TremeIgG1M
B3: AB159 (antibody, IgG1, V domains shown)
VH: B1 VH with Y59H, Y60H
VL: B1 VL
notes: TremeIgG1 mutant, IgG1; also called TremeIgG1M
B4: AB157 (antibody, IgG1, V domains shown)
VH: B1 VH with Y107H, Y108H
VL: B1 VL
notes: as for B3
B5: AB158 (antibody, IgG1, V domains shown)
VH: B1 VH with Y107H
VL: B1 VL
notes: as for B3
B6: AB154 (antibody, V domains shown)
VH: B1 VH with S31H, Y32H, W36H
VL: B1 VL
notes: TremeIgG1 mutant, IgG1; also called mAb154; TremeIgG1M
B7: HL12 (antibody, from another filing, V domains shown)
VH: QVQLQESGPGLVKPSETLSLTCTVSGFSLTSYGLSWIRQPPGKGLEWIGYIWYDGNTNFHPSLKSRVTISKDTSKNQFSLKLSSVTAADTAVYYCAKTEGHYYGSNYGYYALDYWGQGTSVTVSS
VL: DIQMTQSPSSLSASVGDRVTITCRASENIYSNLAWYQQKQGKAPKLLLYAATNLQDGVPSRFSGSGSGTDYTLTISSLQPEDFATYFCQHLWGTPYTFGQGTKLEIK

target: T1, CTLA-4 (antigen of the affinity …); test: affinity, method not stated

Kd	Binder
0.147 nM	B1
4.46 nM	B2
0.387 nM	B3
2.32 nM	B4
0.542 nM	B5
1.23 nM	B6

target: His-hCTLA-4 (polyhistidine-tagged CTLA-4) (human) (UniProt P16410); test: ELISA, plate-coated His-hCTLA-4, antibody 1 ug/ml, pH 5.5 against pH 7.0

binding at pH 5.5 relative to neutral pH (pH 7.0)	Binder
< 50%	B7

target: T2, His-hCTLA-4 (polyhistidine-tagged …); test: as above
Protocol: FIG. 1A-B. pH-sensitivity of TremeIgG1 and its variants. His-hCTLA-4 (0.5 μg/ml) was coated in ELISA plates and different anti-CTLA-4 mAbs were added at 1 μg/ml in the buffer over a pH range of 4.5 to 7.0. pH indicated represents binding and washing conditions. Antibodies bound to CTLA-4 were measured using horse-radish perioxidase-labeled anti-human IgG antibodies.
In order to validate the approach, the activity of the Tremelimumab mutant antibodies was evaluated. To determine if the introduction of histidine to the CDR regions affects the pH sensitivity of the antibodies, the antibody binding to its antigen, polyhistidine-tagged CTLA-4, was measured over a pH range. As a control, HL12, which is known to bind CTLA-4 in a pH-dependent manner, with reduced binding at low/acidic pH, was used.

binding at pH 5.5 relative to neutral pH (pH 7.0)	Binder
≤ 50%	B2
≥ 75%	B3
≤ 50%	B4
≥ 75%	B5
